The target in this data set is T1, GST-IPA1 (Oryza sativa, UniProt Q7EXZ2 1-417).
T1 sequence: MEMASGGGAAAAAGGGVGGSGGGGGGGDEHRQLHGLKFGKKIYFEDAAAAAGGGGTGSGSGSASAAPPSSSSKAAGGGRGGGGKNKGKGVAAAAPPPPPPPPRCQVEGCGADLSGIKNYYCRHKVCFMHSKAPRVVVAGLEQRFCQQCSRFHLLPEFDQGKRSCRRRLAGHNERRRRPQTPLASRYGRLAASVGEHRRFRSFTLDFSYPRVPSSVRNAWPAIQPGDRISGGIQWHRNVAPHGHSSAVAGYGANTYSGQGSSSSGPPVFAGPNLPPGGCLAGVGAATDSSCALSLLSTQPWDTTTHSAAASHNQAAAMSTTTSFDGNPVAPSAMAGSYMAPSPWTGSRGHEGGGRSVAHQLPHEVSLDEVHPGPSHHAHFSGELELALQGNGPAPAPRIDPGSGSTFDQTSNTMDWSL
The experiment in a line: EMSA; LightShift Chemiluminescent EMSA Kit (Thermo 20148) per manufacturer; buffer, salt, pH and temperature not stated. The following applies: protein: recombinant; tags: N-terminal GST (pGEX-4t-1); label: 5'-biotin on strand 1; blunt.

B1: Biotin-P2 (OsCBF3 promoter) (dsDNA)
DNA 1: TACCTAGGTTTTAAGTTATAGTACTTACAATTTTTTGATGAG
DNA 2: CTCATCAAAAAATTGTAAGTACTATAACTTAAAACCTAGGTA
As to B1, the binding result is reported as “binds”.

B2: Biotin-P2-m (GTAC to ATAC) (dsDNA)
DNA 1: TACCTAGGTTTTAAGTTATAATACTTACAATTTTTTGATGAG
DNA 2: CTCATCAAAAAATTGTAAGTATTATAACTTAAAACCTAGGTA
B2: the binding result is “no binding”.
